Experimental data as given in patent US20260001928A1 (CORTERIA PHARMACEUTICALS, priority 2022, published 2026).
*1 amine or outer side, *2 acyl side, *3 side chain or, on linkers, in order; H or OH if unused. Where no end group is shown, it is not given here. Side-chain parts run from the residue outwards. [ ]: non-standard residue; d: D form. The star is where a group is joined. C18 diacid = O=C(O)CCCCCCCCCCCCCCCCC(=O)*; C16 diacid = O=C(O)CCCCCCCCCCCCCCC(=O)*; γGlu = O=C(O)[C@H](CCC(=O)[*:2])N[*:1]; NMeI = CC[C@H](C)[C@H](NC)C(=O)O; αMeK = C[C@](N)(CCCCN)C(=O)O; Dap = NC[C@H](N)C(=O)O; AEEA = NCCOCCOCC(=O)O; Aib = CC(C)(N)C(=O)O

T1: CRF1R receptor (UniProt P34998 24-415, limits assumed)
T1 sequence (looked up): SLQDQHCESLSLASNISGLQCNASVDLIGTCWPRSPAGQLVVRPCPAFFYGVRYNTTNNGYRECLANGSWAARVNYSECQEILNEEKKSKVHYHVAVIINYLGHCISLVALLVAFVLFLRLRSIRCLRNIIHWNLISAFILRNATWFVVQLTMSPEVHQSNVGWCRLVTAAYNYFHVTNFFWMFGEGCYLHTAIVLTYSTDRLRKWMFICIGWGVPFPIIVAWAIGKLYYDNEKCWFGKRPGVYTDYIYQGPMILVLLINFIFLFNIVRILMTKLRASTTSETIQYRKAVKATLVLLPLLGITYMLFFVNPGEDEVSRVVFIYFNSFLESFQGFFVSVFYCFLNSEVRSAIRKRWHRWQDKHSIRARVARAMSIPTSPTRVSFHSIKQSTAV

B1: SEQ ID NO 41 (peptide)
peptide: Ac-IVLSLD[dV]PIKLK([γGlu-γGlu-C16 diacid])KILLEQEKQKKQREQAETN[Aib]QILAQV-NH2
SMILES: CC[C@H](C)[C@H](NC(C)=O)C(=O)N[C@H](C(=O)N[C@@H](CC(C)C)C(=O)N[C@@H](CO)C(=O)N[C@@H](CC(C)C)C(=O)N[C@@H](CC(=O)O)C(=O)N[C@@H](C(=O)N1CCC[C@H]1C(=O)N[C@H](C(=O)N[C@@H](CCCCN)C(=O)N[C@@H](CC(C)C)C(=O)N[C@@H](CCCCNC(=O)CC[C@H](NC(=O)CC[C@H](NC(=O)CCCCCCCCCCCCCCC(=O)O)C(=O)O)C(=O)O)C(=O)N[C@@H](CCCCN)C(=O)N[C@H](C(=O)N[C@@H](CC(C)C)C(=O)N[C@@H](CC(C)C)C(=O)N[C@@H](CCC(=O)O)C(=O)N[C@@H](CCC(N)=O)C(=O)N[C@@H](CCC(=O)O)C(=O)N[C@@H](CCCCN)C(=O)N[C@@H](CCC(N)=O)C(=O)N[C@@H](CCCCN)C(=O)N[C@@H](CCCCN)C(=O)N[C@@H](CCC(N)=O)C(=O)N[C@@H](CCCNC(=N)N)C(=O)N[C@@H](CCC(=O)O)C(=O)N[C@@H](CCC(N)=O)C(=O)N[C@@H](C)C(=O)N[C@@H](CCC(=O)O)C(=O)N[C@H](C(=O)N[C@@H](CC(N)=O)C(=O)NC(C)(C)C(=O)N[C@@H](CCC(N)=O)C(=O)N[C@H](C(=O)N[C@@H](CC(C)C)C(=O)N[C@@H](C)C(=O)N[C@@H](CCC(N)=O)C(=O)N[C@H](C(N)=O)C(C)C)[C@@H](C)CC)[C@@H](C)O)[C@@H](C)CC)[C@@H](C)CC)C(C)C)C(C)C
B2: SEQ ID NO 55 (peptide)
peptide: Ac-IVLSLD[dV]PIKLK([γGlu-C16 diacid])KILLEQEKQKKQREQAETN[Dap]QILAQV-NH2
SMILES: CC[C@H](C)[C@H](NC(C)=O)C(=O)N[C@H](C(=O)N[C@@H](CC(C)C)C(=O)N[C@@H](CO)C(=O)N[C@@H](CC(C)C)C(=O)N[C@@H](CC(=O)O)C(=O)N[C@@H](C(=O)N1CCC[C@H]1C(=O)N[C@H](C(=O)N[C@@H](CCCCN)C(=O)N[C@@H](CC(C)C)C(=O)N[C@@H](CCCCNC(=O)CC[C@H](NC(=O)CCCCCCCCCCCCCCC(=O)O)C(=O)O)C(=O)N[C@@H](CCCCN)C(=O)N[C@H](C(=O)N[C@@H](CC(C)C)C(=O)N[C@@H](CC(C)C)C(=O)N[C@@H](CCC(=O)O)C(=O)N[C@@H](CCC(N)=O)C(=O)N[C@@H](CCC(=O)O)C(=O)N[C@@H](CCCCN)C(=O)N[C@@H](CCC(N)=O)C(=O)N[C@@H](CCCCN)C(=O)N[C@@H](CCCCN)C(=O)N[C@@H](CCC(N)=O)C(=O)N[C@@H](CCCNC(=N)N)C(=O)N[C@@H](CCC(=O)O)C(=O)N[C@@H](CCC(N)=O)C(=O)N[C@@H](C)C(=O)N[C@@H](CCC(=O)O)C(=O)N[C@H](C(=O)N[C@@H](CC(N)=O)C(=O)N[C@@H](CN)C(=O)N[C@@H](CCC(N)=O)C(=O)N[C@H](C(=O)N[C@@H](CC(C)C)C(=O)N[C@@H](C)C(=O)N[C@@H](CCC(N)=O)C(=O)N[C@H](C(N)=O)C(C)C)[C@@H](C)CC)[C@@H](C)O)[C@@H](C)CC)[C@@H](C)CC)C(C)C)C(C)C
B3: SEQ ID NO 5 (peptide)
peptide: [NMeI]VLSLD[dV]PIKLK([γGlu-C16 diacid])QILLKQERQKKQREQAEKNKQILEQV-NH2
modifications: N-terminus assumed
SMILES: CC[C@H](C)[C@H](NC)C(=O)N[C@H](C(=O)N[C@@H](CC(C)C)C(=O)N[C@@H](CO)C(=O)N[C@@H](CC(C)C)C(=O)N[C@@H](CC(=O)O)C(=O)N[C@@H](C(=O)N1CCC[C@H]1C(=O)N[C@H](C(=O)N[C@@H](CCCCN)C(=O)N[C@@H](CC(C)C)C(=O)N[C@@H](CCCCNC(=O)CC[C@H](NC(=O)CCCCCCCCCCCCCCC(=O)O)C(=O)O)C(=O)N[C@@H](CCC(N)=O)C(=O)N[C@H](C(=O)N[C@@H](CC(C)C)C(=O)N[C@@H](CC(C)C)C(=O)N[C@@H](CCCCN)C(=O)N[C@@H](CCC(N)=O)C(=O)N[C@@H](CCC(=O)O)C(=O)N[C@@H](CCCNC(=N)N)C(=O)N[C@@H](CCC(N)=O)C(=O)N[C@@H](CCCCN)C(=O)N[C@@H](CCCCN)C(=O)N[C@@H](CCC(N)=O)C(=O)N[C@@H](CCCNC(=N)N)C(=O)N[C@@H](CCC(=O)O)C(=O)N[C@@H](CCC(N)=O)C(=O)N[C@@H](C)C(=O)N[C@@H](CCC(=O)O)C(=O)N[C@@H](CCCCN)C(=O)N[C@@H](CC(N)=O)C(=O)N[C@@H](CCCCN)C(=O)N[C@@H](CCC(N)=O)C(=O)N[C@H](C(=O)N[C@@H](CC(C)C)C(=O)N[C@@H](CCC(=O)O)C(=O)N[C@@H](CCC(N)=O)C(=O)N[C@H](C(N)=O)C(C)C)[C@@H](C)CC)[C@@H](C)CC)[C@@H](C)CC)C(C)C)C(C)C
B4: SEQ ID NO 107 (peptide)
peptide: Ac-IVLSLD[dV]PIKLK([AEEA-AEEA-γGlu-C18 diacid])KILLEQEKQKKQREQAETN[Dap]QILAQV-NH2
SMILES: CC[C@H](C)[C@H](NC(C)=O)C(=O)N[C@H](C(=O)N[C@@H](CC(C)C)C(=O)N[C@@H](CO)C(=O)N[C@@H](CC(C)C)C(=O)N[C@@H](CC(=O)O)C(=O)N[C@@H](C(=O)N1CCC[C@H]1C(=O)N[C@H](C(=O)N[C@@H](CCCCN)C(=O)N[C@@H](CC(C)C)C(=O)N[C@@H](CCCCNC(=O)COCCOCCNC(=O)COCCOCCNC(=O)CC[C@H](NC(=O)CCCCCCCCCCCCCCCCC(=O)O)C(=O)O)C(=O)N[C@@H](CCCCN)C(=O)N[C@H](C(=O)N[C@@H](CC(C)C)C(=O)N[C@@H](CC(C)C)C(=O)N[C@@H](CCC(=O)O)C(=O)N[C@@H](CCC(N)=O)C(=O)N[C@@H](CCC(=O)O)C(=O)N[C@@H](CCCCN)C(=O)N[C@@H](CCC(N)=O)C(=O)N[C@@H](CCCCN)C(=O)N[C@@H](CCCCN)C(=O)N[C@@H](CCC(N)=O)C(=O)N[C@@H](CCCNC(=N)N)C(=O)N[C@@H](CCC(=O)O)C(=O)N[C@@H](CCC(N)=O)C(=O)N[C@@H](C)C(=O)N[C@@H](CCC(=O)O)C(=O)N[C@H](C(=O)N[C@@H](CC(N)=O)C(=O)N[C@@H](CN)C(=O)N[C@@H](CCC(N)=O)C(=O)N[C@H](C(=O)N[C@@H](CC(C)C)C(=O)N[C@@H](C)C(=O)N[C@@H](CCC(N)=O)C(=O)N[C@H](C(N)=O)C(C)C)[C@@H](C)CC)[C@@H](C)O)[C@@H](C)CC)[C@@H](C)CC)C(C)C)C(C)C
B5: SEQ ID NO 106 (peptide)
peptide: Ac-IVLSLD[dV]PIKLK([AEEA-AEEA-γGlu-C18 diacid])KILLEQEKQKKQREQAETN[αMeK]QILAQV-NH2
modifications: not fully specified
B6: SEQ ID NO 108 (peptide)
peptide: Ac-IVLSLD[dV]PIKLK([AEEA-AEEA-γGlu-C18 diacid])KILLEQEKQKKQREQAETNEQILAQV-NH2
SMILES: CC[C@H](C)[C@H](NC(C)=O)C(=O)N[C@H](C(=O)N[C@@H](CC(C)C)C(=O)N[C@@H](CO)C(=O)N[C@@H](CC(C)C)C(=O)N[C@@H](CC(=O)O)C(=O)N[C@@H](C(=O)N1CCC[C@H]1C(=O)N[C@H](C(=O)N[C@@H](CCCCN)C(=O)N[C@@H](CC(C)C)C(=O)N[C@@H](CCCCNC(=O)COCCOCCNC(=O)COCCOCCNC(=O)CC[C@H](NC(=O)CCCCCCCCCCCCCCCCC(=O)O)C(=O)O)C(=O)N[C@@H](CCCCN)C(=O)N[C@H](C(=O)N[C@@H](CC(C)C)C(=O)N[C@@H](CC(C)C)C(=O)N[C@@H](CCC(=O)O)C(=O)N[C@@H](CCC(N)=O)C(=O)N[C@@H](CCC(=O)O)C(=O)N[C@@H](CCCCN)C(=O)N[C@@H](CCC(N)=O)C(=O)N[C@@H](CCCCN)C(=O)N[C@@H](CCCCN)C(=O)N[C@@H](CCC(N)=O)C(=O)N[C@@H](CCCNC(=N)N)C(=O)N[C@@H](CCC(=O)O)C(=O)N[C@@H](CCC(N)=O)C(=O)N[C@@H](C)C(=O)N[C@@H](CCC(=O)O)C(=O)N[C@H](C(=O)N[C@@H](CC(N)=O)C(=O)N[C@@H](CCC(=O)O)C(=O)N[C@@H](CCC(N)=O)C(=O)N[C@H](C(=O)N[C@@H](CC(C)C)C(=O)N[C@@H](C)C(=O)N[C@@H](CCC(N)=O)C(=O)N[C@H](C(N)=O)C(C)C)[C@@H](C)CC)[C@@H](C)O)[C@@H](C)CC)[C@@H](C)CC)C(C)C)C(C)C

Assays:
CRF1R receptor = biological target: T1, CRF1R receptor; test: cell-based or functional assay
[1] = biological target: human corticotropin-releasing factor 2a (CRF2a receptor) (human), Q13324; test: cell-based or functional assay
Sequence of human corticotropin-releasing factor 2a (CRF2a receptor) (human), Q13324 (Q13324 20-411): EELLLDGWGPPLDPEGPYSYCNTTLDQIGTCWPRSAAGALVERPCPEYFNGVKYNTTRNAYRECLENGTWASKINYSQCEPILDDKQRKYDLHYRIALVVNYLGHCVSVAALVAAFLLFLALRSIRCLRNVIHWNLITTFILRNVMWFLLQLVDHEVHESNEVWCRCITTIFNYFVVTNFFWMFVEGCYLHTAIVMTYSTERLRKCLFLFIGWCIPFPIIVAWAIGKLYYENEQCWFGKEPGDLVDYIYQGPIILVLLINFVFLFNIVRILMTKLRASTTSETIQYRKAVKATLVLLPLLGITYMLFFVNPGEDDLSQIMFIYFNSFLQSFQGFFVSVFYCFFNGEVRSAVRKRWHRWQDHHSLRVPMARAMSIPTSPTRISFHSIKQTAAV

Binder	Emax (% I) (CRF1R receptor)	EC50 [nM] (cAMP) [1]	EC50 (CRF1R receptor)
B1	7%	1.85 nM	–
B2	5%	0.42 nM	–
B3	48%	0.09 nM	158 nM
B4	0%	1.43 nM	–
B5	6%	0.35 nM	–
B6	4%	1.14 nM	–
